# In patent US9797889B2, “Activation of bioluminescence by structural complementation” (Promega Corporation, priority 2013, dated 2017):
# Experiments:
# 11S = 11S (Oplophorus gracilirostris, UniProt Q9GV45, A31E/A60N/A81I/D135N/F58L/F95D/G42A/G62A/G78A/G94A/G98A/H120P/I103V/I117V/I134L/K70R/L176M/L54V/L73R/L99Q/M102E/N171T/P142E/Q151K/Q38E/Q45L/V71I/Y165I); assay: Substrate effect on 11S/NLpep79 Kd (Example 55); assay type: binding; settings: saturating (50 uM) vs sub-saturating (5 uM) furimazine
# [1] = target: wild-type non-luminescent polypeptide (Oplophorus gracilirostris, UniProt Q9GV45, A31E/A60N/A81I/F95D/I117V/K70R/L54V/L99Q/M102K/P142E/Q151K/Q38R/Q45L/V71I/Y165I); assay: NLpep mutant luminescence with wild-type NLpoly lysate (Examples 7, 8, 12, 13); settings: mutations based on alignment to fatty acid binding proteins
# wild-type non-luminescent polypeptide, sequence (Q9GV45 other isoform, or with tags, fused parts or gaps with the stated changes): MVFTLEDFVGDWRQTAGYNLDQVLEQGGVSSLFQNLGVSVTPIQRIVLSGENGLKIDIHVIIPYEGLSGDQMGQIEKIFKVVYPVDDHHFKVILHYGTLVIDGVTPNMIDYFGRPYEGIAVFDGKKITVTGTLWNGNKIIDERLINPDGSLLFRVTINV
# 5P = 5P (Oplophorus gracilirostris, UniProt Q9GV45, A31E/A60N/A81I/D135N/F95D/G42A/G62A/G78A/G94A/G98A/I117V/K70R/L176M/L54V/L99Q/M102K/N171T/P142E/Q151K/Q38E/Q45L/V71I/Y165I); assay: Titration of 5P with NLpep88-HT (Example 47); assay type: biochemical; settings: lower concentrations of NLpep88
# 5P, sequence (Q9GV45 other isoform, or with tags, fused parts or gaps with the stated changes): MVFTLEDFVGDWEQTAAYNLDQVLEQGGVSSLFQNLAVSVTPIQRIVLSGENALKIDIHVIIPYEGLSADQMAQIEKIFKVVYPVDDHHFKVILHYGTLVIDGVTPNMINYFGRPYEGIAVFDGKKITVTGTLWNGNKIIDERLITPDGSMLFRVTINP
# [2] = Luminescence of NLpoly without NLpep (Example 57); assay type: biochemical; settings: E. coli clarified lysate, NanoGlo+Fz
# Protocol: 50 uL of each lysate and 50 uL NanoGlo+Fz were mixed and incubated for 5 min RT. Luminescence was measured on GloMax® Multi+ with 0.5 sec integration.
# NLpep78-HT or NLpep79-HT = assay: NLpoly variant luminescence without NLpep, with NLpep78-HT or NLpep79-HT (Examples 62, 93); assay type: biochemical; settings: E. coli expression culture
# Protocol: Single NLpoly variant colonies were inoculated with 200 uL minimal media and grown for 20 hrs at 37° C. on a shaker. 10 uL of the overnight culture were diluted into 190 uL fresh minimal media and grown for 20 hrs at 37° C. on a shaker. 10 uL of this overnight culture was then diluted into 190 uL auto-induction media (previously described) and grown for 18 hrs at 25° C. on a shaker. 10 uL of this expression culture was mixed with 40 uL of assay lysis buffer (previously described) without NLpep or NLpep78-HT (1:3,860 dilution) or NLpep79-HT (1:10,000 dilution) and shaken for 10 min at RT. 50 uL of NanoGlo+Fz was added and again shake for 10 min at RT. Luminescence was measured on GloMax® luminometer with 0.5 sec integration. FIGS. 105-107 illustrate the luminescence of various NLpolys in the absence of NLpep.
# A single colony of various NLpolys were inoculated individually into 200 uL minimal media and grown for 20 hrs at 37° C. on shaker. […] 10 uL of this overnight culture was diluted into 190 uL auto-induction media (previously described) and grow for 18 hrs at 25° C. on shaker. 10 uL of the expression culture was mixed with 40 uL of assay lysis buffer (previously described) without NLpep or with NLpep78-HT (1:3,860 dilution) or NLpep79-HT (1:10,000 dilution).
# NLpep79 = assay: Substrate specificity of NLpoly 5P and 11S with NLpep79 (Example 97); assay type: biochemical; settings: with NLpep79, 11S compared with 5P
# Protocol: E. coli clarified lysates were prepared for NLpoly 5P or 11S as described previously. The NLpoly lysates were then serially diluted in steps of 10-fold into PBS+0.1% Prionex.
# […] [3] = target: T1, […] (Oplophorus gracilirostris, UniProt Q9GV45); assay: Luminescence of non-luminescent polypeptide mutants upon complementation (Example 5, Table 4); settings: complementation with peptide […]; induced E. coli culture, NANOGLO reagent
# […] [4] = target: T1, […]; assay: as above; settings: complementation with peptide […]; induced E. coli culture, NANOGLO reagent; remark: listed apart in the source
molecule,measurement,setting,value
NVTGYRLFKKISN [NLpep79],affinity between 11S and NLpep79,11S,increase the affinity
GVTGWRLCERISA [NLpep5],activity (luminescence) of single-mutation NLpep with wild-type NLpoly,[1],retains/improves activity
GVTGWRLCKRILA [NLpep4],activity (luminescence) of single-mutation NLpep with wild-type NLpoly,[1],retains/improves activity
DVTGWRLCERILA [NLpep2],activity (luminescence) of single-mutation NLpep with wild-type NLpoly,[1],retains/improves activity
NVSGWGLFKKISN [NLpep88],luminescence of 5P titrated with NLpep88-HT,5P,no increase in luminescence above 5P alone
GVTAWRLCERILA [NLpep3],activity (luminescence) of single-mutation NLpep with wild-type NLpoly,[1],not likely to be tolerated
11S: NLpoly variant 11S (12S-51) (protein) MVFTLEDFVGDWEQTAAYNLDQVLEQGGVSSLLQNLAVSVTPIQRIVRSGENALKIDIHVIIPYEGLSADQMAQIEEVFKVVYPVDDHHFKVILPYGTLVIDGVTPNMLNYFGRPYEGIAVFDGKKITVTGTLWNGNKIIDERLITPDGSMLFRVTINS,luminescence in the absence of NLpep relative to WT NLpoly,[2],~500 fold
same,luminescence of NLpoly variant without NLpep or with NLpep78 or NLpep79,NLpep78-HT or NLpep79-HT,improved luminescence over the other variants
same,substrate specificity for furimazine,NLpep79,superior specificity for furimazine than 5P
L149M (protein) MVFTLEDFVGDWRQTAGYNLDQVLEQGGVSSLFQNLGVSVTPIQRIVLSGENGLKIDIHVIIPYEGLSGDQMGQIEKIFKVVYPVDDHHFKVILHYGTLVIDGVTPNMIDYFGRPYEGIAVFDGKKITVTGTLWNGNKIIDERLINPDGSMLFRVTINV,"luminescence relative to wild-type, RLU(mutant)/RLU(WT)",[…] [3],2.89 RLU(mutant)/RLU(WT)
same,"luminescence relative to wild-type, RLU(mutant)/RLU(WT)",[…] [4],2.16 RLU(mutant)/RLU(WT)
